Three substances from patent US20050025779A1 can be followed below.

Common to all, as to assay: cell-based or functional assay
Test [1] concerns the target amphotropic murine leukemia virus envelope protein, on pseudotyped virus (amphotropic murine leukemia virus).
In test [2] the target is HIV-1 JRCSF envelope glycoprotein, on pseudotyped virus (HIV-1).
Test [3] has as its target HIV-1 92HT594 envelope glycoprotein, on pseudotyped virus (HIV-1).
The target in test [4] is HIV-1 NL4-3 envelope glycoprotein, on pseudotyped virus (HIV-1).

With monoclonal antibody 2G12, the IC50 of virus infectivity (neutralization), U87 CD4/CCR5 cells in test [1] was over 50 µg/mL; in test [2], 0.764 µg/mL; in test [3], 1.94 µg/mL. Moreover, the values for the IC50 of virus infectivity (neutralization), U87 CD4/CXCR4 cells in test [1], in test [3] and in test [4] were over 50 µg/mL, 2.39 µg/mL and 0.473 µg/mL, respectively.
monoclonal antibody 2F5: the IC50 of virus infectivity (neutralization), U87 CD4/CCR5 cells in test [1] is over 50 µg/mL; in test [2] it was 2.1 µg/mL; in test [3], 0.857 µg/mL. Further, the IC50 of virus infectivity (neutralization), U87 CD4/CXCR4 cells was over 50 µg/mL in test [1], 0.748 µg/mL in test [3] and 0.477 µg/mL in test [4].
As to monoclonal antibody 4E10, the IC50 of virus infectivity (neutralization), U87 CD4/CCR5 cells is over 50 µg/mL in test [1], 7.91 µg/mL in test [2] and 2.94 µg/mL in test [3]. In addition, the IC50 of virus infectivity (neutralization), U87 CD4/CXCR4 cells in test [1] is over 50 µg/mL; in test [3] it was 2.67 µg/mL; in test [4] it was 1.42 µg/mL.
